Source: patent US20240392024A1 (SHANGHAI CELGEN BIO PHARMACEUTICAL, published 2024)

What was measured:
[1] = molecular target: T1, human TNFR2 on the cell membrane (human, UniProt P20333 23-461); test: flow cytometry on CHO-TNFR2 cells
T1 construct: whole, on cells; One molecule for all cell formats; also called TNFR2-CHO cells; CHO-TNFR2
T1 sequence (looked up): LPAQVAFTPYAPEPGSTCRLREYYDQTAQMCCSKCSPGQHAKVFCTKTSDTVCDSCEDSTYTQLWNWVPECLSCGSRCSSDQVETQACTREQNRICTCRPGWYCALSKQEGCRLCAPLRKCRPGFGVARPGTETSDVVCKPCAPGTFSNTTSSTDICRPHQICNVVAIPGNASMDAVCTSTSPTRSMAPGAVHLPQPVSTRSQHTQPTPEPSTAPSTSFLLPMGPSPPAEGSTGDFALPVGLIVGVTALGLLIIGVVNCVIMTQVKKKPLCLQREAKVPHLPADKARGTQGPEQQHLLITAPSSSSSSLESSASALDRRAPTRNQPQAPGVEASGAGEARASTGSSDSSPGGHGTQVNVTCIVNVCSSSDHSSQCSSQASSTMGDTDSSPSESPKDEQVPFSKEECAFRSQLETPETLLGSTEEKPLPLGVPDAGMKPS
Method in brief: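 EC50 values come from flow cytometry of serially diluted antibodies binding CHO cells that stably overexpress human TNFR2. After incubation in 96-deep-well plates, the cells were washed, stained with a fluorescent anti-IgG secondary antibody and read on a Beckman CytoFLEX.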

[2] = molecular target: T2, TNFR2-His (Sino Biological, 10417-H08H, NP_001057.1 Met1-Asp257, with multi-histidine tag expressed on … (human, UniProt P20333 23-257)); test: BLI, antibody captured on AHC probe, TNFR2 in solution
T2 construct: range 1-257; Bought protein; also called recombinant human TNFR2 protein; TNFR2-His antigen; not shown: C-terminal multi-histidine tag
T2 sequence (looked up): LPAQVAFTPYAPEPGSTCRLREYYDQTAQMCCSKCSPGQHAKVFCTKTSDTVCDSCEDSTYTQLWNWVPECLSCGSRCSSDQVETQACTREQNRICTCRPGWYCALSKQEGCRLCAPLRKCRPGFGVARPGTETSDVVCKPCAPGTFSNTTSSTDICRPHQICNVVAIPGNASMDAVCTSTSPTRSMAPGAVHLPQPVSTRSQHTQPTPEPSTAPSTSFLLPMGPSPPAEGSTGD
Method in brief: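 Kon, koff and Kd values come from kinetic association measurements made by bio-layer interferometry (Octet, Basic Kinetics mode). Antibody-capture sensors carrying antibodies at 50 nM in Q buffer (10 mM PBS pH 7.4, 0.02% Tween 20, 0.2% BSA) were placed in recombinant human TNFR2, diluted 2-fold in the same buffer from a top concentration of 100 nM.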

B1: human-mouse chimeric TNFR2 monoclonal antibody 12E12-hFc (antibody, V domains shown)
VH: EVQLQQSGAELVKPGASVKLSCTVSGFNIKDFYIHWVKQRPEQGLEWIGRVDPEDGNTEYAPNFQDRATMTTDTSSNTAYLQLSSLTSVDTAVYYCSTWDGFSYFDYWGLGTTLTVSS
VL: QAVVTQESALTTSPGETVTLTCRSSTGPVTTNNYANWVQEKPDHLFTGLIGGTNDRAPGVPARFSGSLIGDKTALTITGTQTEDEAVYFCALWYRNHWVFGGGTKLTVL
notes: Mouse V regions of clone 12E12 with human constant regions; also called human-mouse chimeric 12E12 antibody
[1]
  EC50: 0.0291 µg/mL
[2]
  Kd: 3.27 nM
  koff: 0.00216 s⁻¹
  kon: 659000 M⁻¹ s⁻¹
